From patent publication US20210032312A1 (Janssen / Centocor, published 2021)
Numbering of substitutions follows the chain as printed. Names and notes keep the numbering of the source.

B1: P282DR9P1359_C5 (designed binder)
chain: LPAPKNLVVSRVTEDSARLSWTAPDAAFDSFWITYPEWPDPGGEAIVLTVPGSERSYDLTGLKPGTEYFVVIYGVKGGEIYSPLSAIFTT
notes: FN3 domain (Centyrin); purified as His-tagged protein, tag not in the entry
B2: P282ER9P1360_C8 (designed binder)
chain: LPAPKNLVVSRVTEDSARLSWTAPDAAFDSFGILYYEPVDSGEAITLPVPGSERSYDLTGLKPGTEYWVVITGVKGGAPSTPLGTIFTT
notes: as for B1
B3: P282DR9P1359_G7 (designed binder)
chain: LPAPKNLVVSRVTEDSARLSWTAPDAAFDSFAITYIEKEHIEDGEAIVLTVPGSERSYDLTGLKPGTEYWVPIWGVKGGANSWPLSAIFTT
notes: as for B1
B4: P282DR9P1359_F7 (designed binder)
chain: LPAPKNLVVSRVTEDSARLSWTAPDAAFDSFAIAYPEWPPQGEAIVLTVPGSERSYDLTGLKPGTEYFVVIYGVKGGSYSAPLSAIFTT
notes: as for B1
B5: CD8S366 (designed binder)
chain: B1 chain with E54C
notes: P282DR9P1359_C5 with E54C; the entry holds the mutation
B6: CD8S365 (designed binder)
chain: B2 chain with E53C
notes: P282ER9P1360_C8 with E54C; the entry holds the mutation
B7: CD8S367 (designed binder)
chain: B4 chain with E53C
notes: P282DR9P1359_F7 with E54C; the entry holds the mutation
B8: P283AR9P1362_D6 (designed binder)
chain: LPAPKNLVVSRVTEDSARLSWAKRPGAFDSFLIQYQESEKVGEAIVLTVPGSERSYDLTGLKPGTEYTVSIYGVDVKYDIDSRPISSNPLSAIFTT
notes: as for B1
B9: CD8S366-DFO (designed binder)
chain: B1 chain with E54C
modifications: deferoxamine (DFO) conjugated to the free cysteine introduced by E54C
notes: DFO conjugate of CD8S366
B10: CD8S365-DFO (designed binder)
chain: B2 chain with E53C
modifications: deferoxamine (DFO) conjugated to the free cysteine introduced by E54C
notes: DFO conjugate of CD8S365
B11: CD8S369-DFO (designed binder)
chain: B8 chain with E53C
modifications: deferoxamine (DFO) conjugated to the free cysteine introduced by E54C
notes: DFO conjugate of CD8S369
B12: CD8S370-DFO (designed binder)
chain: B3 chain with E55C
modifications: deferoxamine (DFO) conjugated to the free cysteine introduced by E54C
notes: DFO conjugate of CD8S370
B13: CD8S367-DFO (designed binder)
chain: B4 chain with E53C
modifications: deferoxamine (DFO) conjugated to the free cysteine introduced by E54C
notes: DFO conjugate of CD8S367
B14: CD8S368-DFO (designed binder)
chain: B4 chain with A32Q, Q41P, E53C, V70I, Y72Q, S78V, Y79E, A81W
modifications: deferoxamine (DFO) conjugated to the free cysteine introduced by E54C
notes: DFO conjugate of CD8S368

These binders were tested against T1, human CD8A-Fc (recombinant human CD8 alpha fused to Fc fragment of human IgG1) (human, UniProt P01732 22-182, limits assumed) (assay: SPR, dissociation rate on recombinant CD8 alpha).
T1 construct: SPR ligand, captured by goat anti-human Fc; also called hCD8A-Fc; recombinant CD8 alpha; not shown: linker with flag (and polyhistidine) tag and Fc fragment of human IgG1; depends on which of the two constructs was used
T1 sequence (P01732 22-182 limits assumed): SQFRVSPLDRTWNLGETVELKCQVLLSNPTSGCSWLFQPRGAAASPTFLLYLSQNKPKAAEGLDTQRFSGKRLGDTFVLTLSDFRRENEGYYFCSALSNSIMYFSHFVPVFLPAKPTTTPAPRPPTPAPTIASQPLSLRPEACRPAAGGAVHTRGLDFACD
Work on B1 yielded a koff of 0.000147 s⁻¹. With B2 the koff was 0.000179 s⁻¹. Binder B3 has a koff of 1.06e-05 s⁻¹. B4 gave a koff of 0.000339 s⁻¹.

Each binder was assayed against T2, human CD8A on primary human CD8+ T cells (human, UniProt P01732 22-235) (assay: flow cytometry on human CD8+ T cells).
T2 construct: whole, on cells; also called Human T-cells; CD8 alpha
T2 sequence (P01732 22-235): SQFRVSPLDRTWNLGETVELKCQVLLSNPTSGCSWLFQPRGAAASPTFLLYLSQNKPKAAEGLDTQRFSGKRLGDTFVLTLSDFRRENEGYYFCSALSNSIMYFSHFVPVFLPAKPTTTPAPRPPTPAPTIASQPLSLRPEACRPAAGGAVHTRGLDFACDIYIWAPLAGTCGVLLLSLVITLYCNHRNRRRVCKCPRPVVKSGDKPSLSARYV
Experimental: (§1) A full dose response binding curve was generated for the nineteen selected anti-CD8A FN3 domains. Each candidate was diluted to 20 μM in PBS followed by a 1:3 dilution series to generate either an 11-point or an 18-point dose response curve. Human or cyno CD8+ T cells were incubated with the diluted FN3 domain for 1 hour at 4° C. Cells were washed once with PBS and incubated with an anti-centyrin antibody (PAB25) for 1 hour at 4° C. The cells were washed twice with PBS, followed by incubation with a PE-secondary, anti-CD3-PacB, anti-CD4-APC, and a viability dye. Finally, cells were washed and resuspended in PBS for flow cytometric analysis using a BD Canto Instrument. CD8 T cells were defined as live CD3+CD4− cells. Median fluorescence intensity of the bound Centyrins (PE channel) and % of cells showing positive staining calculated using Cytobank software. Results were graphed using Prism and EC₅₀ values were calculated using the 4 parameter dose response variable slope equation.
B5 gave an EC50 of 163 nM. B6 gave an EC50 of 556 nM. B7 was tested, and the EC50 was 194 nM.

What follows are binders tested against T1, human CD8A-Fc (recombinant human CD8 …) (assay: SPR (ProteOn), captured hCD8A-Fc, heterogeneous ligand fit, higher affinity population).
Experimental: (§2) Human CD8A-Fc was then captured at five surface densities ranging from 200 to 1200 response units, leaving the 6th channel as empty channel control for GAH-Fc IgG surface. Binding was measured by flowing five different concentrations of anti-CD8A FN3 domains (1 μM diluted in a 3-fold dilution series) as analytes simultaneously in the horizontal orientation over the captured hCD8A-Fc surfaces, with a sixth analyte channel containing only running buffer PBST. All interactions were measured at 100 uL/min flow rate with association and dissociation times being 4, 30 minutes respectively. […] Data analyses were performed using Bio-Rad ProteOn Manager software (version 3.1.0.6). Raw data were double referenced by subtraction of the interspot (empty chip surface, no protein immobilized or captured) signals to correct the non-specific binding of the FN3 domain to the pre-coated GAH-Fc IgG surface, followed by a double referencing using the buffer blank response (to correct for any baseline drift resulting from ligand dissociation over time). […] Given that the GAH-Fc capture of hCD8A-Fc format is the least disruptive relative to other formats in introducing potential experimental artifacts (such as ligand activity loss and/or artificial eptiopes/heterogeneous ligand population due to amine coupling), it is considered that the results from the GAH-Fc capture experiments reported here represent the most reliable ProteOn SPR data, despite the non-conforming 1:1 Langmuir fits observed in many instances. A heterogeneous ligand model was chosen to fit the data assuming two different ligand species, either due to the heterogeneity in the ligand protein population or due to potential different mechanisms for each FN3 domain binding to the 2 hCD8A monomers in the Fc fusion protein.
In the case of B1, the Kd is reported as 0.02 nM, the koff is reported as 5.79e-06 s⁻¹ and the kon is reported as 300000 M⁻¹ s⁻¹. In the case of B2, the Kd is reported as 0.2 nM, the koff is reported as 4.71e-05 s⁻¹ and the kon is reported as 218000 M⁻¹ s⁻¹. B8 showed a Kd of 0.03 nM, a koff of 1e-06 s⁻¹ and a kon of 155000 M⁻¹ s⁻¹. B3 gave a Kd of 0.05 nM, a koff of 1.49e-05 s⁻¹ and a kon of 276000 M⁻¹ s⁻¹. With B4 the Kd was 0.5 nM, the koff was 7.99e-05 s⁻¹ and the kon was 404000 M⁻¹ s⁻¹.

The binders below were run against T1, human CD8A-Fc (recombinant human CD8 …) (assay: SPR on recombinant human CD8 alpha after DFO conjugation, lower affinity population).
Experimental: (§3) Data analyses were performed using Bio-Rad ProteOn Manager software (version 3.1.0.6). Raw data were double referenced by subtraction of the interspot (empty chip surface, no protein immobilized or captured) signals to correct the non-specific binding of the FN3 domain to the pre-coated GAH-Fc IgG surface, followed by a double referencing using the buffer blank response (to correct for any baseline drift resulting from ligand dissociation over time). […] Given that the GAH-Fc capture of hCD8A-Fc format is the least disruptive relative to other formats in introducing potential experimental artifacts (such as ligand activity loss and/or artificial eptiopes/heterogeneous ligand population due to amine coupling), it is considered that the results from the GAH-Fc capture experiments reported here represent the most reliable ProteOn SPR data, despite the non-conforming 1:1 Langmuir fits observed in many instances. A heterogeneous ligand model was chosen to fit the data assuming two different ligand species, either due to the heterogeneity in the ligand protein population or due to potential different mechanisms for each FN3 domain binding to the 2 hCD8A monomers in the Fc fusion protein. In this case, because each anti-CD8A FN3 domain would have separate affinities, the resultant sensorgram reflects the sum of two independent reactions with two sets of rate constants, which were reported for each FN3 domain binding.
(§4) Following conjugation to DFO, the binding of each anti-CD8A FN3 domain to recombinant human CD8 alpha was assessed by surface plasmon resonance as previously described. All samples retained tight binding to human CD8A following mutation of E54 to Cys and conjugation to DFO (Table 8).
B9 was tested, and the Kd was 18.2 nM, the koff was 0.000106 s⁻¹ and the kon was 5850 M⁻¹ s⁻¹. B10 was tested, and the Kd was 9.73 nM, the koff was 4.29e-05 s⁻¹ and the kon was 4410 M⁻¹ s⁻¹. With B11 the Kd was ≤ 3.4 nM, the koff was ≤ 1e-05 s⁻¹ and the kon was 2870 M⁻¹ s⁻¹. B12 showed a Kd of 13 nM, a koff of 7.65e-05 s⁻¹ and a kon of 5910 M⁻¹ s⁻¹. In the case of B13, the Kd is reported as 89.1 nM, the koff is reported as 0.000975 s⁻¹ and the kon is reported as 10900 M⁻¹ s⁻¹. For B14, the Kd was 13.6 nM, the koff was 9.98e-05 s⁻¹ and the kon was 7320 M⁻¹ s⁻¹.

Each binder was assayed against T2, human CD8A on primary human CD8+ T cells (assay: MSD-CAT equilibrium cell binding, primary human CD8 T cells).
Experimental: A MesoScale Discovery-Cell Affinity Technology (MSD-CAT) based equilibrium cell-binding assay was performed to determine the affinity of the top six anti-CD8A candidates binding to primary human cytotoxic T cell surface CD8A receptors. Each anti-CD8A FN3 domain at a constant concentration of […] was pre-incubated with 10 different concentrations of primary cytotoxic CD8 T cells (columns 2-11 in a row). Cell viability was checked prior to the binding measurements and a >85% viability was desired for valid analysis. Since these cells were from different donors, in case of donor-to-donor variations, only cells of the same donors were combined together. Each individual anti-CD8A FN3 domain binding was measured in replicates using cells from the same donors. Cells and FN3 domains were incubated overnight at 4° C. on a rotator to reach equilibrium. Following the incubation the cells were spun down along with cell bound anti-CD8A FN3 domains and the unbound (free) anti-CD8A FN3 domains in the supernatants is quantified using MSD assays where biotinylated recombinant hCD8A-Fc protein was captured at 0.6 ug/mL in assay buffer to streptavidin MSD plates overnight ˜16 hours at 4° C. After blocking the plate, supernatant with free anti-CD8A FN3 domains was added to the plate and incubated for 1 hr, then followed by SulfoTag pAb139 (In-house) detection at 1.6 ug/ml. A buffer control without any FN3 domain and hCD8A (plate background binding control) in column 1 and FN3 domain alone control without hCD8A (100% free/unbound) in column 12 were included. Mouse Anti-hCD8A mAb (mIgG1k, BD Biosciences, cat #555364, clone RPA-T8) was included as a positive control. Tencon27 was included in the initial assay validation as a negative control and no significant binding was observed, and therefore, was not included in the later cell binding due to the cell availability. Plates were read immediately on the MSD Sector Imager 6000™ Reader for luminescence levels after adding MSD Read Buffer by diluting 1:4 of stock into H2O.
Raw MSD data were exported and analysed in Prism using a non-linear fit with variable slope function to derive the Bmax and Hillslope values. Only those with converged Bmax values and hillslope within the range of −1.5˜−0.5 (ideal −1.0) will be considered for further analysis.
For B5, the Kd was 0.123 nM. With B6 the Kd was 0.167 nM. Work on B7 yielded a Kd of 0.225 nM.

What follows are binders tested against T1, human CD8A-Fc (recombinant human CD8 …) (assay: SPR on recombinant human CD8 alpha after DFO conjugation, higher affinity population).
Experimental: as §3, §4
In the case of B9, the Kd is reported as 0.9 nM, the koff is reported as 7.01e-05 s⁻¹ and the kon is reported as 79500 M⁻¹ s⁻¹. B10 gave a Kd of 0.6 nM, a koff of 4.18e-05 s⁻¹ and a kon of 68000 M⁻¹ s⁻¹. B11 was tested, and the Kd was ≤ 0.3 nM, the koff was ≤ 1e-05 s⁻¹ and the kon was 37300 M⁻¹ s⁻¹. In the case of B12, the Kd is reported as ≤ 0.3 nM, the koff is reported as ≤ 2e-05 s⁻¹ and the kon is reported as 46400 M⁻¹ s⁻¹. B13 gave a Kd of 1.55 nM, a koff of 0.000131 s⁻¹ and a kon of 84500 M⁻¹ s⁻¹. B14 showed a Kd of 0.23 nM, a koff of 2.53e-05 s⁻¹ and a kon of 108000 M⁻¹ s⁻¹.

Each binder was assayed against T3, cynomolgus monkey CD8A on cyno CD8+ T cells (cynomolgus monkey, UniProt P01732 23-235 (human entry)) (assay: flow cytometry on cyno CD8+ T cells).
T3 construct: also called cyno T-cells; Cyno CD8alpha
T3 sequence (P01732 other isoform, or with tags, fused parts or gaps limits assumed): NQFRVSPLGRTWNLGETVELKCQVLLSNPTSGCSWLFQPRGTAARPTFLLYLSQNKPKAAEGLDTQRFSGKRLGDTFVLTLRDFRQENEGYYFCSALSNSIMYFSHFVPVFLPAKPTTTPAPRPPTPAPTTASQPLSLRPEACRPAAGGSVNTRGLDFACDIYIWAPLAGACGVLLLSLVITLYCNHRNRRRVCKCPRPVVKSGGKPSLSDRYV
Experimental: as §1
Binder B5 has an EC50 of 69.5 nM. Binder B6 has an EC50 of 124 nM. B7 was tested, and the EC50 was 50.8 nM.

Each binder was assayed against T1, human CD8A-Fc (recombinant human CD8 …) (assay: SPR (ProteOn), captured hCD8A-Fc, heterogeneous ligand fit, lower affinity population).
Experimental: as §2
B1 was tested, and the Kd was 6.5 nM, the koff was 0.000127 s⁻¹ and the kon was 19200 M⁻¹ s⁻¹. For B2, the Kd was 4.1 nM, the koff was 9.52e-05 s⁻¹ and the kon was 30900 M⁻¹ s⁻¹. Work on B8 yielded a Kd of 0.98 nM, a koff of 3.12e-05 s⁻¹ and a kon of 56200 M⁻¹ s⁻¹. B3 was tested, and the Kd was 2.1 nM, the koff was 5.51e-05 s⁻¹ and the kon was 68400 M⁻¹ s⁻¹. Binder B4 has a Kd of 12 nM, a koff of 0.000365 s⁻¹ and a kon of 40300 M⁻¹ s⁻¹.
